Experiments:
Format in all cases: biochemical, Aspergillus flavus
[1] = test system: O=c1[nH]c(=O)c2[nH]c(=O)[nH]c2[nH]1; experiment: Michaelis-Menten kinetics, RasU_D8-A209N; settings: other: role: substrate; RasU_D8-A209N (SEQ ID NO: 272); pH 10.5; 25.0 °C
From the text: (§1) Select Aspergillus flavus uricase variants RasU_D12, as well as its subvariants RasU_D12-A56T, and RasU_D12-W160E; and RasU_D8, as well as its subvariants RasU_D8-T33V, RasU_D8-Y65H, RasU_D8-W160E, RasU_D8-A209N, and RasU_D8-T210K were subject to further characterization by comparing their expression yields, Michaelis-Menten kinetics parameters, and thermostability measured by temperatures at which 50% of normal activity was lost determined by heat stress activity assay, with those of the wild type Aspergillus flavus uricase. As the names of the subvariants indicated, the subvariants of RasU_D12 were constructed by introducing an additional amino acid substitution A56T or W160E into the RasU_D12 variant, while the subvariants of RasU_D8 were constructed by introducing an additional amino acid substitution T33V, Y65H, W160E, A209N, or T210K into the RasU_D8 variant. Each of the additional amino acid substitutions was to address residual T cell epitopes in the RasU_D8 or RasU_D12 variant. The expression yields were determined as described above in the “Methods” section. The determination of the Michaelis-Menten kinetics parameters kcat and KM, and the heat stress activity assay were likewise performed using the methods described in Example 1. […]

[2] = test system: O=c1[nH]c(=O)c2[nH]c(=O)[nH]c2[nH]1; experiment: Michaelis-Menten kinetics, RasU_D8-T210K; settings: other: role: substrate; RasU_D8-T210K (SEQ ID NO: 273); pH 10.5; 25.0 °C
From the text: as §1

[3] = test system: O=c1[nH]c(=O)c2[nH]c(=O)[nH]c2[nH]1; experiment: Michaelis-Menten kinetics, RasU_D8; settings: other: role: substrate; RasU_D8 (SEQ ID NO: 236); pH 10.5; 25.0 °C
From the text: as §1

[4] = test system: O=c1[nH]c(=O)c2[nH]c(=O)[nH]c2[nH]1; experiment: Michaelis-Menten kinetics, RasU_D12-W160E; settings: other: role: substrate; RasU_D12-W160E (SEQ ID NO: 268); pH 10.5; 25.0 °C
From the text: as §1

[5] = test system: O=c1[nH]c(=O)c2[nH]c(=O)[nH]c2[nH]1; experiment: Michaelis-Menten kinetics, RasU_D8-W160E; settings: other: role: substrate; RasU_D8-W160E (SEQ ID NO: 271); pH 10.5; 25.0 °C
From the text: as §1

[6] = test system: O=c1[nH]c(=O)c2[nH]c(=O)[nH]c2[nH]1; experiment: Michaelis-Menten kinetics, RasU_D12; settings: other: role: substrate; RasU_D12 (SEQ ID NO: 229); pH 10.5; 25.0 °C
From the text: as §1

[7] = test system: O=c1[nH]c(=O)c2[nH]c(=O)[nH]c2[nH]1; experiment: Michaelis-Menten kinetics, RasU_D12-A56T; settings: other: role: substrate; RasU_D12-A56T (SEQ ID NO: 267); pH 10.5; 25.0 °C
From the text: as §1

[8] = test system: O=c1[nH]c(=O)c2[nH]c(=O)[nH]c2[nH]1; experiment: Michaelis-Menten kinetics, RasU_D8-Y65H; settings: other: role: substrate; RasU_D8-Y65H (SEQ ID NO: 270); pH 10.5; 25.0 °C
From the text: as §1

[9] = test system: O=c1[nH]c(=O)c2[nH]c(=O)[nH]c2[nH]1; experiment: Michaelis-Menten kinetics, RasU_D8-T33V; settings: other: role: substrate; RasU_D8-T33V (SEQ ID NO: 269); pH 10.5; 25.0 °C
From the text: as §1

## Aspergillus flavus uricase variant RasU_D8-A209N (Aspergillus flavus; A210N/A230N/A241D/A97K/E42N/I83E/N101D/S148D/V54N)
[1]
  Km: 1100 ± 300 µM
  kcat: 1.1 ± 0.1 s⁻¹

## Aspergillus flavus uricase variant RasU_D8-T210K (Aspergillus flavus; A230N/A241D/A97K/E42N/I83E/N101D/S148D/T211K/V54N)
[2]
  Km: 3000 ± 2000 µM
  kcat: 2.0 ± 0.7 s⁻¹

## Aspergillus flavus uricase variant RasU_D8 (Aspergillus flavus; A230N/A241D/A97K/E42N/I83E/N101D/S148D/V54N)
[3]
  Km: 900 ± 200 µM
  kcat: 0.8 ± 0.1 s⁻¹

## Aspergillus flavus uricase variant RasU_D12-W160E (Aspergillus flavus; A230N/A241D/A97K/E42N/I83E/N101D/S148D/T211K/W161E)
[4]
  Km: 1700 ± 1000 µM
  kcat: 1.7 ± 0.5 s⁻¹

## Aspergillus flavus uricase variant RasU_D8-W160E (Aspergillus flavus; A230N/A241D/A97K/E42N/I83E/N101D/S148D/V54N/W161E)
[5]
  Km: 600 ± 200 µM
  kcat: 1.2 ± 0.2 s⁻¹

## Aspergillus flavus uricase variant RasU_D12 (Aspergillus flavus; A230N/A241D/A97K/E42N/I83E/N101D/S148D/T211K)
[6]
  Km: 400 ± 100 µM
  kcat: 1.3 ± 0.1 s⁻¹

## Aspergillus flavus uricase variant RasU_D12-A56T (Aspergillus flavus; A230N/A241D/A57T/A97K/E42N/I83E/N101D/S148D/T211K)
[7]
  Km: 1500 ± 600 µM
  kcat: 1.4 ± 0.3 s⁻¹

## Aspergillus flavus uricase variant RasU_D8-Y65H (Aspergillus flavus; A230N/A241D/A97K/E42N/I83E/N101D/S148D/V54N/Y66H)
[8]
  Km: 3000 ± 1000 µM
  kcat: 1.7 ± 0.5 s⁻¹

## Aspergillus flavus uricase variant RasU_D8-T33V (Aspergillus flavus; A230N/A241D/A97K/E42N/I83E/N101D/S148D/T34V/V54N)
[9]
  Km: 3000 ± 1000 µM
  kcat: 1.6 ± 0.5 s⁻¹

Reference: patent US20260308536A1, “NOVEL URICASE VARIANTS AND METHODS OF USE THEREOF” (priority 2023, published 2026)
